Data set [1] deals with T1, wheat germ agglutinin (WGA) (Triticum vulgare, UniProt P10968 P10968:27-197).
T1 sequence: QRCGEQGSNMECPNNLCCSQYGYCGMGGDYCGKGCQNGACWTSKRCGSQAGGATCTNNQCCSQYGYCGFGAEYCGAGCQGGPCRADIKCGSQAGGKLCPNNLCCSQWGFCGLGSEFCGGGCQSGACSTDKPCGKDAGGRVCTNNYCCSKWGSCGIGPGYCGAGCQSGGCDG
As to the kind of experiment: filter; HBSS, room temp. Conditions: tags: free lectin, E Y Laboratories, label: 32P. The method, then:
(§1) The specifically eluted fraction was processed for use in the following round. Fractions eluted from immobilized WGA were heated at 90° C. for 5 minutes in 1% SDS, 2% β-mercaptoethanol and extracted with phenol/chloroform. RNA was reverse transcribed into cDNA by AMV reverse transcriptase at 48° C. for 60 min in 50 mM Tris-Cl pH (8.3), 60 mM NaCl, 6 mM Mg(OAc)_2, 10 mM DTT, 100 pmol DNA primer, 0.4 mM each of dNTPs, and 0.4 unit/µl AMV RT. […] C) Nitrocellulose Filter Partitioning As described in SELEX Patent Applications, the nitrocellulose filter partitioning method was used to determine the affinity of RNA ligands for WGA and for other proteins. Filter discs (nitrocellulose/cellulose acetate mixed matrix, 0.45 µm pore size, Millipore; or pure nitrocellulose, 0.45 µm pore size, Bio-Rad) were placed on a vacuum manifold and washed with 4 ml of HBSS buffer under vacuum. Reaction mixtures, containing ^32P labeled RNA pools and unlabeled WGA, were incubated in HBSS for 10 min at room temperature, filtered, and then immediately washed with 4 ml HBSS. The filters were air-dried and counted in a Beckman LS6500 liquid scintillation counter without fluor. WGA is a homodimer, molecular weight 43.2 kD, with 4 GlcNAc binding sites per dimer. For affinity calculations, we assume one RNA ligand binding site per monomer (two per dimer). The monomer concentration is defined as 2 times the dimer concentration. The equilibrium dissociation constant, K_d, for an RNA pool or specific ligand that binds monophasically is given by the equation $$K_d=[P_f][R_f]/[RP]$$
The dissociation constants for representative members of families 1–9 and orphan ligands were determined by nitrocellulose filter binding experiments and are listed in Table III. These calculations assume one RNA ligand binding site per WGA monomer.

The target of another data set is T2, E-selectin (ES-Rg) (Homo sapiens, UniProt P16581 P16581:22-556).
T2 chain: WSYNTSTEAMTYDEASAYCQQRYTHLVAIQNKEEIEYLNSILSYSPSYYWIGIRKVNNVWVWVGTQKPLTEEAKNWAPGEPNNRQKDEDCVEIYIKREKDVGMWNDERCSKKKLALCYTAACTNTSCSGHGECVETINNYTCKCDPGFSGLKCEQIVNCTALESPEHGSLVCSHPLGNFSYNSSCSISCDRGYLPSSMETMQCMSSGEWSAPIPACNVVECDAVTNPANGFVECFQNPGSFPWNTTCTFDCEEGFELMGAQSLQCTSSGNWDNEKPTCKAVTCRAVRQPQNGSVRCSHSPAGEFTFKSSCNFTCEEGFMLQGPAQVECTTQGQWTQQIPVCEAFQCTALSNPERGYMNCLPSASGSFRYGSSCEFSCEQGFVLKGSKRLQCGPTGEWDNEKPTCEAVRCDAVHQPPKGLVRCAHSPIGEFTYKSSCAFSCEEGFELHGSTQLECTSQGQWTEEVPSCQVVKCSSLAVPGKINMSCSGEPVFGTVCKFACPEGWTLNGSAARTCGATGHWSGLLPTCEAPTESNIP
The data set is described as follows: filter; room temp, Ca/Mg buffer. The settings on record: tags: extracellular domain fused to human IgG1 Fc (provided by A. Varki); chain copies: 2 (dimeric Fc chimera, inferred). Here is the method:
as §1, with “RNA” for “The specifically eluted fraction was processed for use in the following round. Fractions eluted from immobilized WGA were heated at 90° C. for 5 minutes in 1% SDS, 2% β-mercaptoethanol and extracted with phenol/chloroform. RNA”
(§2) The affinity of representative cloned ligands for LS-Rg, ES-Rg, PS-Rg, CD22β-Rg and WGA was determined by nitrocellulose partitioning and the results shown in Table XIV. The ligands are highly specific for L-selectin.
(§3) *Kds were determined at room temperature.

The target in the next data set is T3, P-selectin (PS-Rg) (Homo sapiens, UniProt P16109 P16109:42-321).
T3 chain: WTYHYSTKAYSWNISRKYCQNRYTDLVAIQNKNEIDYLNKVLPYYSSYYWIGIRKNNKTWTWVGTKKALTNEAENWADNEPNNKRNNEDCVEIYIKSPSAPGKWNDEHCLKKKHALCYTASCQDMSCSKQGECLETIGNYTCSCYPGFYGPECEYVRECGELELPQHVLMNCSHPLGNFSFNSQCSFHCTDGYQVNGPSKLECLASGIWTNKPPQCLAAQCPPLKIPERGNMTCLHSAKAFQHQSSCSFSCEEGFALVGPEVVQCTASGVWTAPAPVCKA
As to the kind of experiment: filter; room temp, Ca/Mg buffer. The settings on record: tags: lectin, EGF and first two CRD domains fused to human IgG1 Fc (provided by A. Varki); chain copies: 2 (dimeric Fc chimera, inferred). Here is the method:
as §1, with “RNA” for “The specifically eluted fraction was processed for use in the following round. Fractions eluted from immobilized WGA were heated at 90° C. for 5 minutes in 1% SDS, 2% β-mercaptoethanol and extracted with phenol/chloroform. RNA”
as §2, §3

Kd data for 21 molecules are collected here from patent publication US6001988, “High affinity nucleic acid ligands to lectins” (NeXstar Pharmaceuticals, Inc.).

As a reminder, the Kd is the free concentration of one partner at which half of the binding sites on the other are occupied at equilibrium, for simple one-to-one binding. Higher therefore signals lower affinity.

B1: 11.19 (ssRNA)
RNA: GGGAAAAGCGAAUCAUACACAAGAAAGGGAUGGGAUUGGGACGAGCGGCCAAGACUCGGCGGGAACGAAGGGUGCUCCGCCAGAGACCAACCGAGAA
modifications: 2'-NH2 all C and U
B1: the Kd in data set [1] (hairpin) came to 22 nM.

B2: 11.32 (ssRNA)
RNA: GGGAAAAGCGAAUCAUACACAAGACGUGCGGAGCAAAUAGGGGAUCAUGGAGUCGUACGAACCGUUAUCGCGCUCCGCCAGAGACCAACCGAGAA
modifications: 2'-NH2 all C and U
In turn, B2 displayed a Kd in data set [1] (hairpin) of 274 nM.

B3: 11.29 (ssRNA)
RNA: GGGAAAAGCGAAUCAUACACAAGAACUGAGUAAGGUCUGGCGUGGCAUUAGGUUAGUGGGAGGCUUGGAGUAGGCUCCGCCAGAGACCAACCGAGAA
modifications: 2'-NH2 all C and U
In data set [1], B3 had a Kd of 32 nM.

B4: 11.28 (ssRNA)
RNA: GGGAAAAGCGAAUCAUACACAAGAGUUGGUGCGAGCUGGGGCGGCGAGAAGGUAGGCGGUCCGAGUGUUCGAAUGCUCCGCCAGAGACCAACCGAGAA
modifications: 2'-NH2 all C and U
B4 yielded a Kd in data set [1] (possible G-quartet (speculative)) of 9.2 nM.

B5: 11.27 (ssRNA)
RNA: GGGAAAAGCGAAUCAUACACAAGACGAUGCGAGGCAAGAAAUGGAGUCGUUACGAACCCUCUUGCAGUGCGCGGCUCCGCCAGAGACCAACCGAGAA
modifications: 2'-NH2 all C and U
In data set [1] (hairpin), B5 yielded a Kd of 30 nM.

B6: 6.9 (ssRNA)
RNA: GGGAAAAGCGAAUCAUACACAAGACUCGGCGGGAACGAAGUGUGUGAGUAACGAUCACUUGGUACUAAAAGCCCGCUCCGCCAGAGACCAACCGAGAA
modifications: 2'-NH2 all C and U
For the molecule B6, binding in data set [1] (hairpin) was characterised by a dissociation constant (Kd) of 396 nM.

B7: 11.5 (ssRNA)
RNA: GGGAAAAGCGAAUCAUACACAAGAACAAGGAUCGAUGGCGAGCCGGGGAGGGCUCGGCGGGAACGAAAUCUGCUCCGCCAGAGACCAACCGAGAA
modifications: 2'-NH2 all C and U
As to B7, binding in data set [1] (hairpin) was characterised by a dissociation constant (Kd) of 44 nM.

B8: 11.15 (ssRNA)
RNA: GGGAAAAGCGAAUCAUACACAAGACUCGGCGGGAACGAAAGUGUCAUGGUAGCAAGUCCAAUGGUGGACUCUGCUCCGCCAGAGACCAACCGAGAA
modifications: 2'-NH2 all C and U
B8 yielded a Kd in data set [1] (hairpin) of 54 nM.

B9: 11.4 (ssRNA)
RNA: GGGAAAAGCGAAUCAUACACAAGACAGGCACUGAAAACUCGGCGGGAACGAAAGUAGUGCCGACUCAGACGCGUGCUCCGCCAGAGACCAACCGAGAA
modifications: 2'-NH2 all C and U
In data set [1] (hairpin), B9 showed a Kd of 32 nM.

B10: 11.34 (ssRNA)
RNA: GGGAAAAGCGAAUCAUACACAAGACUCGGCGGGAACGUGAAGUGGGUAGGUAGCUGAAGACGGUCUGGGCGCCAGCUCCGCCAGAGACCAACCGAGAA
modifications: 2'-NH2 all C and U
B10: the Kd in data set [1] (hairpin) came to 92 nM.

B11: 6.3 (ssRNA)
RNA: GGGAAAAGCGAAUCAUACACAAGAGAUACAGCGCGGGUCUAAAGACCUUGCCCCUAGGAUGCAACGGGGUGGCUCCGCCAGAGACCAACCGAGAA
modifications: 2'-NH2 all C and U
Consider B11, for which the Kd in data set [1] is 120 nM.

B12: 233 (ssDNA)
DNA: CTACCTACGATCTGACTAGCCACGACAGAGAACAAGGCGTTAGACGTTATCCGACCACGGCTTACTCTCATGTAGTTCC
Regarding B12, the Kd was determined as 39 nM with E-selectin (ES-Rg) and 420 nM with P-selectin (PS-Rg).

B13: 11.26 (ssRNA)
RNA: GGGAAAAGCGAAUCAUACACAAGAUUGGGCAGGCAGAGCGAGACCGGGGGCUCGGCGGGAACGGAACAGGAAUGCUCCGCCAGAGACCAACCGAGAA
modifications: 2'-NH2 all C and U
In turn, B13 showed a Kd in data set [1] (hairpin) of 38 nM.

B14: 11.6 (ssRNA)
RNA: GGGAAAAGCGAAUCAUACACAAGACUGGGGAGCAGGAUAUGAGAUGUGCGGGGCAAUGGAGUCGUGACGAACCGCUCCGCCAGAGACCAACCGAGAA
modifications: 2'-NH2 all C and U
Molecule B14 showed a Kd in data set [1] (hairpin) of 702 nM.

B15: 6.5 (ssRNA)
RNA: GGGAAAAGCGAAUCAUACACAAGAGUCCCUAGGGAUGCAACGGGCAGCAUUCGCAUAGGAGUAAUCGGAGGUCGCUCCGCCAGAGACCAACCGAGAA
modifications: 2'-NH2 all C and U
The molecule B15 displayed a Kd in data set [1] of 678 nM.

B16: 11.12 (ssRNA)
RNA: GGGAAAAGCGAAUCAUACACAAGACGGCUGUGUGUGGUAGCGUCAUAGUAGGAGUCGUCACGAACCAAGGCGCUCCGCCAGAGACCAACCGAGAA
modifications: 2'-NH2 all C and U
B16 gave a Kd in data set [1] (hairpin) of 15.2 nM.

B17: 11.2 (ssRNA)
RNA: GGGAAAAGCGAAUCAUACACAAGACCAACGUACAUCGCGAGCUGGUGGAGAGUUCAUGAGGGUGUUACGGGGUGCUCCGCCAGAGACCAACCGAGAA
modifications: 2'-NH2 all C and U
On to B17, for which the Kd in data set [1] amounted to 62 nM.

B18: 6.23 (ssRNA)
RNA: GGGAAAAGCGAAUCAUACACAAGACUCGGCGGGAAUCGAAAGUGUACUGAAUUAGAACGGUGGGCCUGCUCAUCGUGCUCCGCCAGAGACCAACCGAGAA
modifications: 2'-NH2 all C and U
For B18, the Kd in data set [1] (hairpin) was determined as 824 nM.

B19: 11.8 (ssRNA)
RNA: GGGAAAAGCGAAUCAUACACAAGAAUGGUUGGCCUGGGCGCAGGCUUCGAAGACUCGGCGGGAACGGGAAUGGCUCCGCCAGAGACCAACCGAGAA
modifications: 2'-NH2 all C and U
Molecule B19 yielded a Kd in data set [1] (hairpin) of 9.2 nM.

B20: 6.19 (ssRNA)
RNA: GGGAAAAGCGAAUCAUACACAAGAAUCGAACCUAGGGAUGCAACGGUGAAGGUUGUGAGGAUUCGCCAUUAGGCGCUCCGCCAGAGACCAACCGAGAA
modifications: 2'-NH2 all C and U
With B20, in data set [1], binding was characterised by a dissociation constant (Kd) of 74 nM.

B21: 6.27 (ssRNA)
RNA: GGGAAAAGCGAAUCAUACACAAGAUGCCGGUGGAAAGGCGGGUAGGUGACCCGAGGAUUCCUACCAAGCCAUGCUCCGCCAGAGACCAACCGAGAA
modifications: 2'-NH2 all C and U
As to B21, in data set [1], binding was put at a Kd of 56 nM.
